In patent US20110052606A1 (Novo Nordisk, published 2011):

Tests used:
[1] = target: T1, scCD94/NKG2A-mFc, Fc-fusion protein of murine IgG1 fused at the C-terminus with a single-chain construct of … (mouse; human, UniProt Q13241 32-179); assay: SPR Biacore T100, sc-NKG2A-CD94-mFc immobilized, antibody 1.25-10 nM
[2] = target: T2, human CD94/NKG2A receptor on cells (Ba/F3 cells over-expressing CD94/NKG2A; NKL cells) (human, UniProt Q13241 1-179); assay: flow cytometry on Ba/F3-CD94/NKG2A cells
T2 construct: whole, on cells; also called Ba/F3-CD94/NKG2A

[3] = target: T1, scCD94/NKG2A-mFc, Fc-fusion protein of …; assay: SPR Biacore T100, sc-NKG2A-CD94-mFc immobilized, binding level (RU) divided by that of chimZ199
[4] = target: T1, scCD94/NKG2A-mFc, Fc-fusion protein of …; assay: SPR Biacore T100, sc-NKG2A-CD94-mFc immobilized

T1 sequence (Q13241 other isoform, or with tags, fused parts or gaps): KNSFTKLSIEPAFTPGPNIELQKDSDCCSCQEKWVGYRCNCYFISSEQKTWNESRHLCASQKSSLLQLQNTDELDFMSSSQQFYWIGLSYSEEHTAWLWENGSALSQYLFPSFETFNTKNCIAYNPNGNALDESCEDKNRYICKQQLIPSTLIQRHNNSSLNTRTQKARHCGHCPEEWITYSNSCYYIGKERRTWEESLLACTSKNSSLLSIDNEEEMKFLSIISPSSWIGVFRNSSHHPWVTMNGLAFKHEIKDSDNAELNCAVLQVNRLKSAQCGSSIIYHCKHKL
T2 sequence (chain, as listed by the source, chain 1 of 2): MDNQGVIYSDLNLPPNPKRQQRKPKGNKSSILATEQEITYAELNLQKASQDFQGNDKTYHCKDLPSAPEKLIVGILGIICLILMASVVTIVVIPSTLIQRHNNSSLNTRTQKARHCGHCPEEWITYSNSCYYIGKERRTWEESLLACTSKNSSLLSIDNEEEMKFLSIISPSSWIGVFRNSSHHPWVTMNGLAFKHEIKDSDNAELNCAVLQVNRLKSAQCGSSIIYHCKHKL
T2 sequence (Q13241 whole entry, chain 2 of 2): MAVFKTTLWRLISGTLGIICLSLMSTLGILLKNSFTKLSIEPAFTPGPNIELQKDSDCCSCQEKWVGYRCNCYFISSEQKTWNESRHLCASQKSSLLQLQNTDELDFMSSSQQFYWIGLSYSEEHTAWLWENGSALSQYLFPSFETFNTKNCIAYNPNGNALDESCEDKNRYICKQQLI

B1: chimeric Z199 with a human IgG4(S241P) portion (antibody, V domains shown)
VH: EVQLVESGGGLVKPGGSLKLSCAASGFTFSSYAMSWVRQSPEKRLEWVAEISSGGSYTYYPDTVTGRFTISRDNAKNTLYLEISSLRSEDTAMYYCTRHGDYPRFFDVWGAGTTVTVSS
VL: QIVLTQSPALMSASPGEKVTMTCSASSSVSYIYWYQQKPRSSPKPWIYLTSNLASGVPARFSGSGSGTSYSLTISSMEAEDAATYYCQQWSGNPYTFGGGTKLEIKR
notes: also called chimZ199; ChimZ199
**Q.** For B1, which Kd [1] is on record?
**A.** 0.0243 nM

**Q.** And the koff [1]?
**A.** 4.17e-05 s⁻¹

**Q.** And the kon [1]?
**A.** 1.72e+06 M⁻¹ s⁻¹

B2: murine anti-NKG2A antibody Z199 (antibody, V domains shown)
VH: EVQLVESGGGLVKPGGSLKLSCAASGFTFSSYAMSWVRQSPEKRLEWVAEISSGGSYTYYPDTVTGRFTISRDNAKNTLYLEISSLRSEDTAMYYCTRHGDYPRFFDVWGAGTTVTVSS
VL: QIVLTQSPALMSASPGEKVTMTCSASSSVSYIYWYQQKPRSSPKPWIYLTSNLASGVPARFSGSGSGTSYSLTISSMEAEDAATYYCQQWSGNPYTFGGGTKLEIKR
notes: Mouse monoclonal antibody (Beckman Coulter IM2750) and its recombinant form recZ199 made in HEK293 cells; also called recZ199; Z199 (rec)
**Q.** Does B2 bind [2]?
**A.** binds

B3: chimZ199 heavy-chain alanine mutant Y56A (antibody, human IgG4, name in Kabat numbering, V domains shown)
VH: EVQLVESGGGLVKPGGSLKLSCAASGFTFSSYAMSWVRQSPEKRLEWVAEISSGGSATYYPDTVTGRFTISRDNAKNTLYLEISSLRSEDTAMYYCTRHGDYPRFFDVWGAGTTVTVSS
VL: QIVLTQSPALMSASPGEKVTMTCSASSSVSYIYWYQQKPRSSPKPWIYLTSNLASGVPARFSGSGSGTSYSLTISSMEAEDAATYYCQQWSGNPYTFGGGTKLEIKR
notes: Ala-scan mutant made on chimZ199 (human IgG4 constant domains); Kabat numbering; also called HC: Y56A
**Q.** Which “relative binding against chimZ199” value [3] does the source give for B3 here?
**A.** ~40%

B4: chimZ199 heavy-chain alanine mutant Y98A (antibody, human IgG4, name in Kabat numbering, V domains shown)
VH: EVQLVESGGGLVKPGGSLKLSCAASGFTFSSYAMSWVRQSPEKRLEWVAEISSGGSYTYYPDTVTGRFTISRDNAKNTLYLEISSLRSEDTAMYYCTRHGDAPRFFDVWGAGTTVTVSS
VL: QIVLTQSPALMSASPGEKVTMTCSASSSVSYIYWYQQKPRSSPKPWIYLTSNLASGVPARFSGSGSGTSYSLTISSMEAEDAATYYCQQWSGNPYTFGGGTKLEIKR
notes: Ala-scan mutant made on chimZ199 (human IgG4 constant domains); Kabat numbering; also called HC: Y98A
**Q.** Which “relative binding against chimZ199” value [3] does the source give for B4 here?
**A.** ~40%

B5: chimZ199 heavy-chain alanine mutant P99A (antibody, human IgG4, name in Kabat numbering, V domains shown)
VH: EVQLVESGGGLVKPGGSLKLSCAASGFTFSSYAMSWVRQSPEKRLEWVAEISSGGSYTYYPDTVTGRFTISRDNAKNTLYLEISSLRSEDTAMYYCTRHGDYARFFDVWGAGTTVTVSS
VL: QIVLTQSPALMSASPGEKVTMTCSASSSVSYIYWYQQKPRSSPKPWIYLTSNLASGVPARFSGSGSGTSYSLTISSMEAEDAATYYCQQWSGNPYTFGGGTKLEIKR
notes: Ala-scan mutant made on chimZ199 (human IgG4 constant domains); Kabat numbering; also called HC: P99A
**Q.** B5 was tested. Which “relative binding against chimZ199” value [3] did it give?
**A.** ~40%

B6: chimZ199 light-chain alanine mutant Y32A (antibody, human IgG4, name in Kabat numbering, V domains shown)
VH: EVQLVESGGGLVKPGGSLKLSCAASGFTFSSYAMSWVRQSPEKRLEWVAEISSGGSYTYYPDTVTGRFTISRDNAKNTLYLEISSLRSEDTAMYYCTRHGDYPRFFDVWGAGTTVTVSS
VL: QIVLTQSPALMSASPGEKVTMTCSASSSVSAIYWYQQKPRSSPKPWIYLTSNLASGVPARFSGSGSGTSYSLTISSMEAEDAATYYCQQWSGNPYTFGGGTKLEIKR
notes: Ala-scan mutant made on chimZ199 (human IgG4 constant domains); also called LC: Y32A
**Q.** With B6 as the binder, how does the “relative binding against chimZ199” value [3] read?
**A.** ~40%

B7: chimZ199 light-chain alanine mutant L50A (antibody, human IgG4, name in Kabat numbering, V domains shown)
VH: EVQLVESGGGLVKPGGSLKLSCAASGFTFSSYAMSWVRQSPEKRLEWVAEISSGGSYTYYPDTVTGRFTISRDNAKNTLYLEISSLRSEDTAMYYCTRHGDYPRFFDVWGAGTTVTVSS
VL: QIVLTQSPALMSASPGEKVTMTCSASSSVSYIYWYQQKPRSSPKPWIYATSNLASGVPARFSGSGSGTSYSLTISSMEAEDAATYYCQQWSGNPYTFGGGTKLEIKR
notes: Ala-scan mutant made on chimZ199 (human IgG4 constant domains); also called LC: L50A
**Q.** How did the “relative binding against chimZ199” value [3] turn out when B7 was run?
**A.** ~40%

B8: chimZ199 light-chain alanine mutant P95A (antibody, human IgG4, name in Kabat numbering, V domains shown)
VH: EVQLVESGGGLVKPGGSLKLSCAASGFTFSSYAMSWVRQSPEKRLEWVAEISSGGSYTYYPDTVTGRFTISRDNAKNTLYLEISSLRSEDTAMYYCTRHGDYPRFFDVWGAGTTVTVSS
VL: QIVLTQSPALMSASPGEKVTMTCSASSSVSYIYWYQQKPRSSPKPWIYLTSNLASGVPARFSGSGSGTSYSLTISSMEAEDAATYYCQQWSGNAYTFGGGTKLEIKR
notes: Ala-scan mutant made on chimZ199 (human IgG4 constant domains); also called LC: P95A
**Q.** Which “relative binding against chimZ199” value [3] does the source give for B8 here?
**A.** ~40%

B9: HumZ199 (LC: L46P) (antibody, name in Kabat numbering, V domains shown)
VH: EVQLVESGGGLVKPGGSLRLSCAASGFTFSSYAMSWVRQAPGKGLEWVSEISSGGSYTYYADSVKGRFTISRDNAKNSLYLQMNSLRAEDTAVYYCARHGDYPRFFDVWGQGTTVTVSS
VL: EIVLTQSPATLSLSPGERATLSCSASSSVSSYIYWYQQKPGQAPRPLIYLTSNLASGIPARFSGSGSGTDFTLTISSLEPEDFAVYYCQQWSGNPYTFGQGTKLEIK
notes: also called huZ199(LC:L46P); humZ199 with single back mutation L46P in the light chain
**Q.** With B9 as the binder, how does the Kd [1] read?
**A.** 0.072 nM

**Q.** And the koff [1]?
**A.** 0.000122 s⁻¹

**Q.** What about the kon [1] of the same binder?
**A.** 1.7e+06 M⁻¹ s⁻¹

**Q.** And the “fold difference of affinity against chimeric Z199” value [4]?
**A.** 2.7 fold
